Assay results published in doi:10.1101/2022.03.25.485784 (bioRxiv, 2022).

Target: the molecule itself
Test: cryo-EM structure

B1: dtSARM1, the full-length SARM1 with the N-terminal 27-aa segment replaced by a twin-Strep and Flag-tag (enzyme)
chain: LAVPGPDGGGGTGPWWAAGGRGPREVSPGAGTEVQDALERALPELQQALSALKQAGGARAVGAGLAEVFQLVEEAWLLPAVGREVAQGLCDAIRLDGGLDLLLRLLQAPELETRVQAARLLEQILVAENRDRVARIGLGVILNLAKEREPVELARSVAGILEHMFKHSEETCQRLVAAGGLDAVLYWCRRTDPALLRHCALALGNCALHGGQAVQRRMVEKRAAEWLFPLAFSKEDELLRLHACLAVAVLATNKEVEREVERSGTLALVEPLVASLDPGRFARCLVDASDTSQGRGPDDLQRLVPLLDSNRLEAQCIGAFYLCAEAAIKSLQGKTKVFSDIGAIQSLKRLVSYSTNGTKSALAKRALRLLGEEVPRPILPSVPSWKEAEVQTWLQQIGFSKYCESFREQQVDGDLLLRLTEEELQTDLGMKSGITRKRFFRELTELKTFANYSTCDRSNLADWLGSLDPRFRQYTYGLVSCGLDRSLLHRVSEQQLLEDCGIHLGVHRARILTAAREMLHSPLPCTGGKPSGDTPDVFISYRRNSGSQLASLLKVHLQLHGFSVFIDVEKLEAGKFEDKLIQSVMGARNFVLVLSPGALDKCMQDHDCKDWVHKEIVTALSCGKNIVPIIDGFEWPEPQVLPEDMQAVLTFNGIKWSHEYQEATIEKIIRFLQGRSSRDSSAGSDTSLEGAAPMGPT
  stoichiometry N: 8
